The numbers were not newly measured in paper PMC7900953, “Location of a single histidine within peptide carriers increases mRNA delivery” (The Journal of Gene Medicine, 2020), which cites them from elsewhere.

For this data set, the system named is human cells. The settings on record: cited from earlier work.

Where no end group is shown, it is not given here.

In the case of “H3k4b (KHHHKHHHKHHHKHHHK; also: four-branched lysine core)”, the “Cytotoxicity to human cells” value is “no observed cytotoxicity to human cells”.
